In doi:10.1101/2020.01.09.899237 (bioRxiv, 2020):
Blank lines part the entries; values can stand above or below the binder they belong to.

B1: FITC-labelled JD_(1-77) (domain or fragment)
chain: not shown
modifications: FITC-maleimide label (site not stated)

Legend:
HspA1A (human Hsp70) = HspA1A (human Hsp70) (human, UniProt P0DMV8 1-641); assay: fluorescence polarisation
FITC-labelled JD_(1-77) [1] = target: B1; assay: MST
FITC-labelled JD_(1-77) [2] = target: B1; assay: fluorescence polarisation
cross-linking = target: the molecule itself; assay: cross-linking
dynamic light scattering = target: the molecule itself; assay: dynamic light scattering

Chain of HspA1A (human Hsp70) (P0DMV8 whole entry): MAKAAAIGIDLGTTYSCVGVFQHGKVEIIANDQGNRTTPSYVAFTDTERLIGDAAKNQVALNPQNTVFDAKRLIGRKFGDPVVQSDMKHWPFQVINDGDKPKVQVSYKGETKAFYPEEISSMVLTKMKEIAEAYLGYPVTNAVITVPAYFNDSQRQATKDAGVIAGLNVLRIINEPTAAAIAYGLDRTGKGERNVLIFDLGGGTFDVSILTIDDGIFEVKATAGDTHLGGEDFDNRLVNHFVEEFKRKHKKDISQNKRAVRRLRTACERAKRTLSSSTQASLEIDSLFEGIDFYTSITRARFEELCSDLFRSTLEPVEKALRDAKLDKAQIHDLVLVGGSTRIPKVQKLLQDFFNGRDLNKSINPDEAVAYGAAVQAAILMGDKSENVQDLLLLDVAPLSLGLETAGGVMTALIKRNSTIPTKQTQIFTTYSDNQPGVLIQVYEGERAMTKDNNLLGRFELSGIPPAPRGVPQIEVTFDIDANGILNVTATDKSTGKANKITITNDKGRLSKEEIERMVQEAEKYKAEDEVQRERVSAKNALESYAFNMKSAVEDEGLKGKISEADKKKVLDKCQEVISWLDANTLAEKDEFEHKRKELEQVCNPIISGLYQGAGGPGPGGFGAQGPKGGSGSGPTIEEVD

Binder: B1
Kd (HspA1A (human Hsp70)): 257 ± 29 nM

Kd (FITC-labelled JD_(1-77) [1]): 5.36 ± 1.15 µM | Kd (FITC-labelled JD_(1-77) [2]): 542 ± 71 nM
B2: DnaJB8 C-terminal domain CTD_(170-232) (domain or fragment, human, UniProt Q8NHS0 170-232, looked up)
chain: GGSSSGSSGFKSVMSSTEMINGHKVTTKRIVENGQERVEVEEDGQLKSVTVNGKEQLKWMDSK

B3: DnaJB8-mClover3 fusion protein (natural protein, human, UniProt Q8NHS0 1-232, looked up)
chain: MANYYEVLGVQASASPEDIKKAYRKLALRWHPDKNPDNKEEAEKKFKLVSEAYEVLSDSKKRSLYDRAGCDSWRAGGGASTPYHSPFDTGYTFRNPEDIFREFFGGLDPFSFEFWDSPFNSDRGGRGHGLRGAFSAGFGEFPAFMEAFSSFNMLGCSGGSHTTFSSTSFGGSSSGSSGFKSVMSSTEMINGHKVTTKRIVENGQERVEVEEDGQLKSVTVNGKEQLKWMDSK
binding result (cross-linking): binds

B4: DnaJB8 (recombinant full-length wild type) (natural protein, human, UniProt Q8NHS0 1-232, looked up)
chain: MANYYEVLGVQASASPEDIKKAYRKLALRWHPDKNPDNKEEAEKKFKLVSEAYEVLSDSKKRSLYDRAGCDSWRAGGGASTPYHSPFDTGYTFRNPEDIFREFFGGLDPFSFEFWDSPFNSDRGGRGHGLRGAFSAGFGEFPAFMEAFSSFNMLGCSGGSHTTFSSTSFGGSSSGSSGFKSVMSSTEMINGHKVTTKRIVENGQERVEVEEDGQLKSVTVNGKEQLKWMDSK
binding result (dynamic light scattering): binds
